Tests used:
[1] = molecular target: T1, BMP7-BMPR2 interaction (Homo sapiens, UniProt Q13873); assay: Proximity Ligation Assay of BMP7-BMPR2 interaction in MDA-MB-231; type: cell-based; details: 50 ng/mL BMP7 30 minutes, exogenous LEFTY 200 ng/mL
T1 construct: endogenous in cells; host or cells: MDA-MB-231
T1 sequence (Q13873 27-1038): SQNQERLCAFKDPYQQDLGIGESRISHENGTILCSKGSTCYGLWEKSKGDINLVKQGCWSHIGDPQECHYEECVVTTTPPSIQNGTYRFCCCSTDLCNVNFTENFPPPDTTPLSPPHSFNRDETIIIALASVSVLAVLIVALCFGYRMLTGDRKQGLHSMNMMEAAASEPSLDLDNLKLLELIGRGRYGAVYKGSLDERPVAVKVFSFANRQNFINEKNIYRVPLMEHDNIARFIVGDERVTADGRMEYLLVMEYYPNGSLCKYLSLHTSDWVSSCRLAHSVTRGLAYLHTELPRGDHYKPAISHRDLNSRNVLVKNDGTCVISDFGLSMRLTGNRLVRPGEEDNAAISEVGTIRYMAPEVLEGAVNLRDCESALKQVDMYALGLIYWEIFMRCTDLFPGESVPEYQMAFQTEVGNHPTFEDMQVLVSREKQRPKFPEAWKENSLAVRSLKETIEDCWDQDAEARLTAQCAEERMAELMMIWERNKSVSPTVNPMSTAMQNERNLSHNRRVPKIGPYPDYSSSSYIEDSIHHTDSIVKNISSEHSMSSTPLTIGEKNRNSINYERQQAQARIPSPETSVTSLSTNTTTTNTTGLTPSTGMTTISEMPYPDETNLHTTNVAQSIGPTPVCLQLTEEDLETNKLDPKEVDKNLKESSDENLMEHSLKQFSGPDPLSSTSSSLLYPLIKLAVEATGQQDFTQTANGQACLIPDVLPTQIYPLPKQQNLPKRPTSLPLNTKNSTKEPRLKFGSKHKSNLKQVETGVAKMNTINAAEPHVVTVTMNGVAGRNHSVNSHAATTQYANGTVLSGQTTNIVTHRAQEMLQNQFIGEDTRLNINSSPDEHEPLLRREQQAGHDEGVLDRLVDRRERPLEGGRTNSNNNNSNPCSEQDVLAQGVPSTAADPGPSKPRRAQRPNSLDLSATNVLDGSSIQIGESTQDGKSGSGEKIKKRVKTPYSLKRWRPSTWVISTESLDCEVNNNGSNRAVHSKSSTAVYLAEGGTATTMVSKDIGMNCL
Protocol: FIGS. 20 and 21 are data from an experiment in which the breast cancer cell line MDA-MB-231 was plated and serum starved for 24 hours. 50 ng/mL BMP7 was added for 30 minutes to activate pSMAD5, either in the absence or presence of exogenous LEFTY (200 ng/mL). LEFTY-BMPR2 interaction, BMP7-BMPR2 interaction (as visualized by Proximity Ligation Assay, red), pSMAD5 status (As visualized by Immunofluorescence, green) were monitored and captured.
For the PLA assay (DUOLink, OLink Biosciences, Sigma-Aldrich #DUO92102), cells were seeded and treated on 13 mm glass coverslips previously coated with Poly-L-Lysine (Millipore). The cells were fixed with ice cold 100% Methanol for 5 minutes at −20° C. and then rehydrated thrice in PBS for 5 min each. Coverslips were blocked for 30 min with PBS+3% BSA and then incubated with appropriate dilution of primary antibodies in PBS+1% BSA for 1 h in a moist environment at room temperature. Rabbit anti-LEFTY1 and Thermo mouse anti-BMPR2 were used to characterize the interaction between LEFTY and BMPR2 (Table S2). […]
Breast cancer cell line MDA-MB-231 was plated and serum starved for 24 hours. […] LEFTY-BMPR2 interaction, BMP7-BMPR2 interaction (as visualized by Proximity Ligation Assay, red), pSMAD5 status (As visualized by Immunofluorescence, green) were monitored and captured.

[2] = system: pSMAD2; assay: Western-blot of pSMAD2 in Comma-D mammary epithelial cells; type: cell-based, mouse; details: Comma-D cells blocked with LEFTY1 200 ng/ml 1 hour, stimulated with BMP7 and Nodal 50 ng/ml 30 minutes
Protocol: FIGS. 4J-4L. LEFTY1 inhibits pSMAD2 and pSMAD5 in Comma-D mouse mammary epithelial cells. […] Comma-D cells were serum starved 16 hours and blocked with LEFTY1 (200 ng/ml) for 1 hour and stimulated with BMP7 (50 ng/ml) and Nodal (50 ng/ml) for 30 minutes in serum free media. Cells were harvested in 1×RIPA Buffer with 1× protease and phosphatase inhibitors on ice. Lysates were diluted in 4× sample buffer and boiled at 95° C. for 5 minutes and then run on a 10% SDS-page gradient gels at 100V for 1 hour. […] The membranes were incubated with either pSMAD2, pSMAD5, total SMAD2/3 or SMAD1/5/8 antibodies overnight. Incubation with secondary antibodies containing fluorophores at 1:20,000 dilution (IRDye 800CW conjugated goat anti-rabbit #926-32211, IRDye 680 conjugated goat anti-mouse antibodies #926-32220, LI-COR Biosciences, Lincoln, NE) enabled visualization on the Odyssey Infrared Imaging System from LI-COR Biosciences. […] Data are represented as median±S.D. Statistical analysis, one-way ANOVA with post-hoc Tukey multiple comparison, ****p<0.0001, ***p<0.001; unless stated analysis is non-significant with p>0.05.

BMP7-BMPR2 interaction [1]: reduces BMP7-BMPR2 interactions
B1: LEFTY1: left-right determination factor 1, secreted TGF-β superfamily protein; generic LEFTY may mean LEFTY1 or LEFTY2 (protein, UniProt O75610 77-366, looked up)
Left-right determination …: RFSQSFREVAGRFLALEASTHLLVFGMEQRLPPNSELVQAVLRLFQEPVPKAALHRHGRLSPRSARARVTVEWLRVRDDGSNRTSLIDSRLVSVHESGWKAFDVTEAVNFWQQLSRPRQPLLLQVSVQREHLGPLASGAHKLVRFASQGAPAGLGEPQLELHTLDLGDYGAQGDCDPEAPMTEGTRCCRQEMYIDLQGMKWAENWVLEPPGFLAYECVGTCRQPPEALAFKWPFLGPRQCIASETDSLPMIVSIKEGGRTRPQVVSLPNMRVQKCSCASDGALVPRRLQP
pSMAD2 signal [2]: inhibited
